Test results taken from article PMC9957003, “Functional Analyses of Rare Germline Missense BRCA1 Variants Located within and outside Protein Domains with Known Functions” (Genes, 2023).

Molecular target: T1, Flag-PALB2 WT (Partner and Localiser of BRCA2) (UniProt Q86YC2 1-1186)
T1 construct: PALB2 (Partner and Localiser of BRCA2), wild type; printed both as Flag-PALB2 and as PALB2-Flag; also called PALB2-Flag; pDEST-FRT/T0-Flag-PALB2; source: HEK293FT, transiently co-transfected, in lysate
T1 sequence (looked up): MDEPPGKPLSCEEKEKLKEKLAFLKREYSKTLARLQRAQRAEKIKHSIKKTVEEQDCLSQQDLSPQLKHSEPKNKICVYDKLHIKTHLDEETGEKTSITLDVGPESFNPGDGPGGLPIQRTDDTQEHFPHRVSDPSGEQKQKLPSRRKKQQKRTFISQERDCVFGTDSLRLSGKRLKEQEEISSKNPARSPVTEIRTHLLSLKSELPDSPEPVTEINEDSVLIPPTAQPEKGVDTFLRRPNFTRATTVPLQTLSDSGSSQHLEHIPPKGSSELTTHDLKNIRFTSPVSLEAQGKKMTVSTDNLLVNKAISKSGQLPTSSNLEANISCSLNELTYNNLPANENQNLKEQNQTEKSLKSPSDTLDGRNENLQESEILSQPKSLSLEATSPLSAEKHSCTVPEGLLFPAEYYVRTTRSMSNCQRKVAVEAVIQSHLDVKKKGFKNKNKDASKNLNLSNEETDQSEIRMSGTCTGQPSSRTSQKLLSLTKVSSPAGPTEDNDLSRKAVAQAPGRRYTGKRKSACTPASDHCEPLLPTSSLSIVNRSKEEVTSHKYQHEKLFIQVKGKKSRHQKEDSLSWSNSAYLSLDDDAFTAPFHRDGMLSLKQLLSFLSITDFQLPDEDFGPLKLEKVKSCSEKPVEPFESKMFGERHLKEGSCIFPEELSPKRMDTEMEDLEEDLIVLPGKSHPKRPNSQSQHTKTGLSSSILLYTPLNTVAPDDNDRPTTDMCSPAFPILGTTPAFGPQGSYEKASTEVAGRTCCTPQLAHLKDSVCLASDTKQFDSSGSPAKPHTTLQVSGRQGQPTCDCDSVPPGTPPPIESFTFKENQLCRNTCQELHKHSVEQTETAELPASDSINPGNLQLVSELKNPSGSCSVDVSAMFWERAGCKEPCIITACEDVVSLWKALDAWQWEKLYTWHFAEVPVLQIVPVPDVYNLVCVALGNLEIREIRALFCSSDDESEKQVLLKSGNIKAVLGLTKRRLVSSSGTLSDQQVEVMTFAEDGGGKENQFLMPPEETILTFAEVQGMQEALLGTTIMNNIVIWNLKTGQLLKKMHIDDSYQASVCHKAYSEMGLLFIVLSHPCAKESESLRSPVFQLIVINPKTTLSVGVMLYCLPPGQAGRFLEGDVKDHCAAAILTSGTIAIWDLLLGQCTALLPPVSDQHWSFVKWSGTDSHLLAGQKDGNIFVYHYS
Experiment: co-IP; HEK293FT co-transfected with BRCA1 WT or variant and Flag-PALB2; 2 mg lysate protein incubated 90 min at 4 °C with Flag antibody coupled to Dynabeads Protein G; non-denaturing elution; BRCA1 in the IP detected by anti-BRCA1 blot, normalised to the anti-Flag signal, % of WT
Settings: partners not purified

B1: BRCA1 p.Lys503Arg (full-length, mCherry-tagged) (natural protein, human, UniProt P38398 1-1863, looked up)
chain: MDLSALRVEEVQNVINAMQKILECPICLELIKEPVSTKCDHIFCKFCMLKLLNQKKGPSQCPLCKNDITKRSLQESTRFSQLVEELLKIICAFQLDTGLEYANSYNFAKKENNSPEHLKDEVSIIQSMGYRNRAKRLLQSEPENPSLQETSLSVQLSNLGTVRTLRTKQRIQPQKTSVYIELGSDSSEDTVNKATYCSVGDQELLQITPQGTRDEISLDSAKKAACEFSETDVTNTEHHQPSNNDLNTTEKRAAERHPEKYQGSSVSNLHVEPCGTNTHASSLQHENSSLLLTKDRMNVEKAEFCNKSKQPGLARSQHNRWAGSKETCNDRRTPSTEKKVDLNADPLCERKEWNKQKLPCSENPRDTEDVPWITLNSSIQKVNEWFSRSDELLGSDDSHDGESESNAKVADVLDVLNEVDEYSGSSEKIDLLASDPHEALICKSERVHSKSVESNIEDKIFGKTYRKKASLPNLSHVTENLIIGAFVTEPQIIQERPLTNKLRRKRRPTSGLHPEDFIKKADLAVQKTPEMINQGTNQTEQNGQVMNITNSGHENKTKGDSIQNEKNPNPIESLEKESAFKTKAEPISSSISNMELELNIHNSKAPKKNRLRRKSSTRHIHALELVVSRNLSPPNCTELQIDSCSSSEEIKKKKYNQMPVRHSRNLQLMEGKEPATGAKKSNKPNEQTSKRHDSDTFPELKLTNAPGSFTKCSNTSELKEFVNPSLPREEKEEKLETVKVSNNAEDPKDLMLSGERVLQTERSVESSSISLVPGTDYGTQESISLLEVSTLGKAKTEPNKCVSQCAAFENPKGLIHGCSKDNRNDTEGFKYPLGHEVNHSRETSIEMEESELDAQYLQNTFKVSKRQSFAPFSNPGNAEEECATFSAHSGSLKKQSPKVTFECEQKEENQGKNESNIKPVQTVNITAGFPVVGQKDKPVDNAKCSIKGGSRFCLSSQFRGNETGLITPNKHGLLQNPYRIPPLFPIKSFVKTKCKKNLLEENFEEHSMSPEREMGNENIPSTVSTISRNNIRENVFKEASSSNINEVGSSTNEVGSSINEIGSSDENIQAELGRNRGPKLNAMLRLGVLQPEVYKQSLPGSNCKHPEIKKQEYEEVVQTVNTDFSPYLISDNLEQPMGSSHASQVCSETPDDLLDDGEIKEDTSFAENDIKESSAVFSKSVQKGELSRSPSPFTHTHLAQGYRRGAKKLESSEENLSSEDEELPCFQHLLFGKVNNIPSQSTRHSTVATECLSKNTEENLLSLKNSLNDCSNQVILAKASQEHHLSEETKCSASLFSSQCSELEDLTANTNTQDPFLIGSSKQMRHQSESQGVGLSDKELVSDDEERGTGLEENNQEEQSMDSNLGEAASGCESETSVSEDCSGLSSQSDILTTQQRDTMQHNLIKLQQEMAELEAVLEQHGSQPSNSYPSIISDSSALEDLRNPEQSTSEKAVLTSQKSSEYPISQNPEGLSADKFEVSADSSTSKNKEPGVERSSPSKCPSLDDRWYMHSCSGSLQNRNYPSQEELIKVVDVEEQQLEESGPHDLTETSYLPRQDLEGTPYLESGISLFSDDPESDPSEDRAPESARVGNIPSSTSALKVPQLKVAESAQSPAAAHTTDTAGYNAMEESVSREKPELTASTERVNKRMSMVVSGLTPEEFMLVYKFARKHHITLTNLITEETTHVVMKTDAEFVCERTLKYFLGIAGGKWVVSYFWVTQSIKERKMLNEHDFEVRGDVVNGRNHQGPKRARESQDRKIFRGLEICCYGPFTNMPTDQLEWMVQLCGASVVKELSSFTLGTGVHPIVVVQPDAWTEDNGFHAIGQMCEAPVVTREWVLDSVALYQCQELDTYLIPQIPHSHY
notes: BRCA1, human, full-length, rare germline missense variant introduced in the WT plasmid; Made by site-directed mutagenesis of the plasmid of m1; also called c.1508A > G; source: HEK293FT, transiently co-transfected, in lysate
Co-IP PALB2 (% of WT): 18 % of WT

B2: BRCA1 p.Met1411Thr (full-length, mCherry-tagged; pathogenic control variant, coiled-coil domain) (natural protein, human, UniProt P38398 1-1863, looked up)
chain: MDLSALRVEEVQNVINAMQKILECPICLELIKEPVSTKCDHIFCKFCMLKLLNQKKGPSQCPLCKNDITKRSLQESTRFSQLVEELLKIICAFQLDTGLEYANSYNFAKKENNSPEHLKDEVSIIQSMGYRNRAKRLLQSEPENPSLQETSLSVQLSNLGTVRTLRTKQRIQPQKTSVYIELGSDSSEDTVNKATYCSVGDQELLQITPQGTRDEISLDSAKKAACEFSETDVTNTEHHQPSNNDLNTTEKRAAERHPEKYQGSSVSNLHVEPCGTNTHASSLQHENSSLLLTKDRMNVEKAEFCNKSKQPGLARSQHNRWAGSKETCNDRRTPSTEKKVDLNADPLCERKEWNKQKLPCSENPRDTEDVPWITLNSSIQKVNEWFSRSDELLGSDDSHDGESESNAKVADVLDVLNEVDEYSGSSEKIDLLASDPHEALICKSERVHSKSVESNIEDKIFGKTYRKKASLPNLSHVTENLIIGAFVTEPQIIQERPLTNKLKRKRRPTSGLHPEDFIKKADLAVQKTPEMINQGTNQTEQNGQVMNITNSGHENKTKGDSIQNEKNPNPIESLEKESAFKTKAEPISSSISNMELELNIHNSKAPKKNRLRRKSSTRHIHALELVVSRNLSPPNCTELQIDSCSSSEEIKKKKYNQMPVRHSRNLQLMEGKEPATGAKKSNKPNEQTSKRHDSDTFPELKLTNAPGSFTKCSNTSELKEFVNPSLPREEKEEKLETVKVSNNAEDPKDLMLSGERVLQTERSVESSSISLVPGTDYGTQESISLLEVSTLGKAKTEPNKCVSQCAAFENPKGLIHGCSKDNRNDTEGFKYPLGHEVNHSRETSIEMEESELDAQYLQNTFKVSKRQSFAPFSNPGNAEEECATFSAHSGSLKKQSPKVTFECEQKEENQGKNESNIKPVQTVNITAGFPVVGQKDKPVDNAKCSIKGGSRFCLSSQFRGNETGLITPNKHGLLQNPYRIPPLFPIKSFVKTKCKKNLLEENFEEHSMSPEREMGNENIPSTVSTISRNNIRENVFKEASSSNINEVGSSTNEVGSSINEIGSSDENIQAELGRNRGPKLNAMLRLGVLQPEVYKQSLPGSNCKHPEIKKQEYEEVVQTVNTDFSPYLISDNLEQPMGSSHASQVCSETPDDLLDDGEIKEDTSFAENDIKESSAVFSKSVQKGELSRSPSPFTHTHLAQGYRRGAKKLESSEENLSSEDEELPCFQHLLFGKVNNIPSQSTRHSTVATECLSKNTEENLLSLKNSLNDCSNQVILAKASQEHHLSEETKCSASLFSSQCSELEDLTANTNTQDPFLIGSSKQMRHQSESQGVGLSDKELVSDDEERGTGLEENNQEEQSMDSNLGEAASGCESETSVSEDCSGLSSQSDILTTQQRDTMQHNLIKLQQETAELEAVLEQHGSQPSNSYPSIISDSSALEDLRNPEQSTSEKAVLTSQKSSEYPISQNPEGLSADKFEVSADSSTSKNKEPGVERSSPSKCPSLDDRWYMHSCSGSLQNRNYPSQEELIKVVDVEEQQLEESGPHDLTETSYLPRQDLEGTPYLESGISLFSDDPESDPSEDRAPESARVGNIPSSTSALKVPQLKVAESAQSPAAAHTTDTAGYNAMEESVSREKPELTASTERVNKRMSMVVSGLTPEEFMLVYKFARKHHITLTNLITEETTHVVMKTDAEFVCERTLKYFLGIAGGKWVVSYFWVTQSIKERKMLNEHDFEVRGDVVNGRNHQGPKRARESQDRKIFRGLEICCYGPFTNMPTDQLEWMVQLCGASVVKELSSFTLGTGVHPIVVVQPDAWTEDNGFHAIGQMCEAPVVTREWVLDSVALYQCQELDTYLIPQIPHSHY
notes: BRCA1, human, full-length, pathogenic control missense variant in the coiled-coil domain, introduced in the WT plasmid; Made by site-directed mutagenesis of the plasmid of m1; also called c.4232T > C; source: HEK293FT, transiently co-transfected, in lysate
Co-IP PALB2 (% of WT): 11 % of WT
